Tests used:
Assay in all cases: peptide microarray
[1] = molecular target: T1, human CD26-derived 13 mer peptide 125 (human)
T1 sequence (peptide): GDHYLCDVTWATQ

[2] = molecular target: T2, human CD26-derived 13 mer peptide 13 (human)
T2 sequence (peptide): QENNILVFNAEYG

[3] = molecular target: T3, human CD26-derived 13 mer peptide 16 (human)
T3 sequence (peptide): VFNAEYGNSSVFL

[4] = molecular target: T4, human CD26-derived 13 mer peptide 121 (human)
T4 sequence (peptide): TAPASMLIGDHYL

[5] = molecular target: T5, human CD26-derived 13 mer peptide 91 (human)
T5 sequence (peptide): FNDTEVPLIEYSF

[6] = molecular target: T6, human CD26-derived 13 mer peptide 69 (human)
T6 sequence (peptide): RITWTGKEDIIYN

[7] = molecular target: T7, human CD26-derived 13 mer peptide 29 (human)
T7 sequence (peptide): DYSISPDGQFILL

[8] = molecular target: T8, human CD26-derived 13 mer peptide 31 (human)
T8 sequence (peptide): SPDGQFILLEYNY

B1: rhuMAb 411 (antibody, human IgG1, kappa, V domains shown)
VH: EVQLVESGAGVKQPGGTLRLTCTASGFSLTTYGVHWVRQAPGKGLEWVGVIWGDGRTDYDAAFMSRVTISKDTSKSTVYLQMNSLRAEDTAVYYCMRNRHDWFDYWGQGTTVTVSS
VL: DILLTQSPSSLSATPGERATITCRASQGIRNNLNWYQQKPGQAPRLLIYYSSNLQSGVPSRFSGSGSGTDFTLTISRLQPEDVAAYYCQQSIKLPFTFGSGTKVEIKR
Mean Signal Value [1]: 1.8 | Mean Signal Value [2]: 1.94 | Mean Signal Value [3]: 1.92 | Mean Signal Value [4]: 2.08 | Mean Signal Value [5]: 2.3 | Mean Signal Value [6]: 2.45 | Mean Signal Value [7]: 2.16 | Mean Signal Value [8]: 2.33
